Data on one molecule can be found in US20190060239A1, “Technology for the Preparation of Microparticles” (Ansun Biopharma, Inc., priority 2007, published 2019).

Data set [1] in a line: Sialidase activity with fluorogenic substrate 4-MU-NANA. Format: biochemical. The procedure:
The sialidase activity of DAS181 was measured using the fluorogenic substrate 4-methylumbelliferyl-N-acetyl-α-D-neuraminic acid (4-MU-NANA; Sigma). One unit of sialidase is defined as the amount of enzyme that releases 10 nmol of MU from 4-MU-NANA in 10 minutes at 37° C. (50 mM CH3COOH—NaOH buffer, pH 5.5) in a reaction that contains 20 nmol of 4-MU-NANA in a 0.2 ml volume (Potier et al., Anal. Biochem., 94:287-296, 1979). The specific activity of DAS181 was determined to be 1,300 U/mg protein (0.77 μg DAS181 protein per unit of activity).

Data set [2] can be described thus: Microsphere formation, size and appearance by light microscopy. Format: physicochemical.
Data set [3] is described as follows: Microsphere quality score by light microscopy (scoring system of Table 13). The data set is classed as physicochemical. On the procedure: For each of the compounds listed in A-D above, and for DAS181, cocktail solutions containing 2 mg/ml of compound dissolved in an aqueous solvent and various counterions, antisolvents and pH, as listed below, were prepared in a 96-well microtiter plate (0.1 ml cocktail/well) at room temperature. Control solutions contained either solvent or antisolvent alone, with or without the counterion. Cocktails were cooled by placing in a freezer. The chilled plates were transferred onto pre-chilled (−45° C.) shelves of a Millrock Lab Series Lyophilizer, and the vacuum was applied. The frozen cocktail solutions were allowed to lyophilize for 16 hours.
The lyophilized powders from the bottoms of the wells were transferred onto glass slides and analyzed by light microscopy for appearance. The quality of the product microspheres was scored based on the uniformity of the microspheres, the absence of undesirable non-microsphere particles (glass-like crystalline forms), and the absence of aggregates.
Arginine was used as counterion and isopropanol was used as antisolvent. Concentrations of each of the cocktail components—the compound, the counterion and the antisolvent—were varied as shown below in Table 15, and the effect on microsphere quality assessed.
Experiments were performed to evaluate the effect of antisolvent and counterion concentration variation on the formation of microspheres. The peptides leuprolide and somatostatin, and the antibiotics vancomycin and tobramycin, were tested under a variety of conditions for forming microspheres. Samples were analyzed in 96-well plates as described in the previous Examples.
The experiments were performed using PGI2 and an analog of PGI2, Ciprostene, at a concentration of 2 mg/ml. Cocktail solutions were mixed at room temperature, then cooled by placing in a freezer. The chilled plates were transferred onto pre-chilled (−45° C.) shelves of a Millrock Lab Series Lyophilizer, and the vacuum was applied. The frozen cocktail solutions were allowed to lyophilize for 16 hours.
Because the resulting prostaglandin microspheres are hygroscopic, upon microsphere initiation, the humidity was maintained at low levels during the experiments, using a nitrogen gas tank attached to the backfill system on the lyophilizer. Each of the reaction tubes was flushed with N2. In addition, the backfill valve on the lyophilizer was left open to continually flush a low humidity atmosphere over the samples. The microscope used to visualize the resulting microspheres was contained within a plastic bag that was continually purged with dry N2. Sample tubes were placed under the bag to equilibrate for approximately 30 seconds, before opening and spreading onto the glass slide.
The compound/counterion/antisolvent conditions were as follows:
Experiments were performed with 200 μl of each of the above cocktail solutions in a 2 ml lyophilization bottle (first flash freeze condition), and 25 μl of each of the above cocktail solutions in a PCR tube (second flash freeze condition). The samples in the lyophilization bottles took approximately 15 seconds to freeze. The samples in the PCR tubes took approximately 3 seconds or less to freeze.
The cocktails in the 96-well plates were cooled by placing in a freezer. The chilled plates were transferred onto pre-chilled (−45° C.) shelves of a Millrock Lab Series Lyophilizer, and a vacuum was applied. The frozen cocktail solutions were allowed to lyophilize for 16 hours.
The lyophilized powders from the bottoms of the wells were transferred onto glass slides and analyzed by light microscopy for appearance.

B1: DAS181: fusion protein: heparin (GAG) binding domain of human amphiregulin fused to a catalytic domain of Actinomyces Viscosus sialidase (SEQ ID NO:17) (protein)
chain: MGDHPQATPAPAPDASTELPASMSQAQHLAANTATDNYRIPAITTAPNGDLLISYDERPKDNGNGGSDAPNPNHIVQRRSTDGGKTWSAPTYIHQGTETGKKVGYSDPSYVVDHQTGTIFNFHVKSYDQGWGGSRGGTDPENRGIIQAEVSTSTDNGWTWTHRTITADITKDKPWTARFAASGQGIQIQHGPHAGRLVQQYTIRTAGGAVQAVSVYSDDHGKTWQAGTPIGTGMDENKVVELSDGSLMLNSRASDGSGFRKVAHSTDGGQTWSEPVSDKNLPDSVDNAQIIRAFPNAAPDDPRAKVLLLSHSPNPRPWSRDRGTISMSCDDGASWTTSKVFHEPFVGYTTIAVQSDGSIGLLSEDAHNGADYGGIWYRNFTMNWLGEQCGQKPAKRKKKGGKNGKNRRNRKKKNP
modifications: DAS181
For the molecule B1, in data set [1] (4-MU-NANA, 37°C, pH 5.5, one unit releases 10 nmol MU in 10 minutes), the “specific activity of DAS181” value was 1,300 U/mg protein. Moreover, the “DAS181 protein per unit of activity” value in data set [1] (same assay) came to 0.77 µg. For the same molecule, in data set [2] (5 mg/ml or 10 mg/ml DAS181, 5 mM sodium citrate, 5% isopropanol), the size of microspheres result is reported as “about 1.5 micron”. Further, the “appearance of dry pellet” value in data set [2] (cocktail 2): 10 mg/ml DAS181, 5 mM glycine pH 5.0, 10% isopropanol, gradual cooling) is “a mixture of glass-like crystals and agglomerates with only a few microspheres”; in data set [2] (cocktail 4) (5 mM sodium citrate, 10% isopropanol) snap-frozen in liquid nitrogen in a glass tube), “glass-like crystals and no microspheres”; in data set [2] (cocktail 4) (5 mM sodium citrate, 10% isopropanol) snap-frozen in liquid nitrogen in a plastic tube), “agglomerated microspheres”; in data set [2] (cocktails 1) and 3): 10 mg/ml DAS181, 5 mM glycine or 5 mM sodium citrate pH 5.0, no organic solvent), “no microspheres were observed”. Moreover, the “appearance of microspheres (microscopy and cascade impaction)” value in data set [2] (continuous mode: 10 mg/ml DAS181, 20% isopropanol, 2 mM sodium sulfate, heat exchanger, cooled from about 25°C to about −12°C) is “uniform microspheres with minimal aggregation and good dispersivity”. The appearance after lyophilization entry in data set [2] (same cocktail not chilled, poured directly into liquid nitrogen) is given as “no microspheres were observed”. For the same molecule, the “Microsphere Quality” value in data set [3] (2 mM Na-Glutamate, 15% n-propanol, pH 4.0) is 6/7; in data set [3] (2 mM Na-citrate, 15% isopropanol, pH 4.0), 5/6; in data set [3] (2 mM Na-citrate, 15% n-propanol, pH 5.0), 8/9.
